Source: the supplement of paper PMC10201428
± gives the standard deviation of the averaged measurements.

Key:
[1] = system: VchCAST RNA-guided transposition machinery (E. coli BL21(DE3) host, lacZ target); assay: relative integration efficiency (T-RL orientation) vs wild-type transposon end (log2 (normalized fold change)); transposon end mutated: left end; higher = more efficient transposition
In short: (§1)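 Barcode abundances in input plasmids and in genomic integration junctions were obtained by PCR amplification and Illumina sequencing. These came from E. coli BL21(DE3) co-transformed with a T7-driven effector plasmid and a pUC57 donor carrying 1549 left-end or 1849 right-end transposon variants, then plated with 0.1 mM IPTG at 37°C for 18 h. Relative integration efficiency is the output/input fold change, normalised to reference barcodes and log-transformed.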

[2] = system: VchCAST RNA-guided transposition machinery (E. coli BL21(DE3) host, lacZ target); assay: relative integration efficiency (T-LR orientation) vs wild-type transposon end (log2 (normalized fold change)); transposon end mutated: left end; higher = more efficient transposition
In short: as §1

Sequence	relative integration efficiency (log2) [1]	relative integration efficiency (log2) [2]
AATGTTGTTGATGCAACCATAAAGTGATATTTAAATTGTGAGCGGATAACAATTCTTAACCACAAAACAACCATATATTGATATCTCACAAAACAACCATAAGTTGATATTTTTGTGAATCGAGTATTTCAGCAAAACTACTGCAGTAAGAA	-3.08 ± 0.73	-3.23 ± 0.83
AATGTTGTTGATGCAACCATAAAGTGATATTTAATAACTTCGTATAAGGTATACTATACGAAGTTATCAACCATATATTGATATCTCACAAAACAACCATAAGTTGATATTTTTGTGAATCGAGTATTTCAGCAAAACTACTGCAGTAAGAA	-3.34 ± 1.1	-3.52 ± 1.1
AATGTTGTTGATGCAACCATAAAGTGATATTTAATAATTATTTATAATCAGCAACTTAACCACAAACAACCATATATTGATATCTCACAAAACAACCATAAGTTGATATTTTTGTGAATCGAGTATTTCAGCAAAACTACTGCAGTAAGAAA	-0.248 ± 0.24	-0.356 ± 0.049
AATGTTGTTGATCAACCATAAAGTGATATTTAATAATTATTTATAATCAGCAACTTAACCACAAAACAACCATATATTGATATCTCACAAAACAACCATAAGTTGATATTTTTGTGAATCGAGTATTTCAGCAAAACTACTGCAGTAAGAAA	-6.905 ± 0.028	< -10
AATGTTGTTGATGCAACCATAAAGTGATATTTAATAATTATTTATAATCAGCAACTTAACCACAAACAACCATATATTGATATCTCACAAAACAACCATAAGTTGATATTTTATGTGAATCGAGTATTTCAGCAAAACTACTGCAGTAAGAA	-0.754 ± 0.26	-1.02 ± 0.3
AATGTTGTTGATGCAACCATAAAGTGATATTTAATAATTATTTATAATCAGCAACTTAACCACAAAACAACCATATATTGATATCTCACAAAACAACCAGCCTGGTCGCGGGGGTGTCCGATCTGATTTCAGCAAAACTACTGCAGTAAGAA	-2.22 ± 0.9	-0.68 ± 0.94
AATGTTGTTGATGCACCCATAAATTGATATTGCATAATTATTTATAATCAGCAACTTAACCACAAAACAACCATATATTGATATCTCACAAAAGTTGGTATTCAACTATAAAATGTGAATCGAGTATTTCAGCAAAACTACTGCAGTAAGAA	-3.48 ± 0.92	-1.64 ± 1.3
AATGTTGTTGATGCAACCATAAGTTGATATTTTATAATTATTTATAATCAGCAACTTAACCACAAAACACCCATAAATTGATAATTAACAAAAGTTGGTATTCAACTATAAAATGTGAATCGAGTATTTCAGCAAAACTACTGCAGTAAGAA	-2.37 ± 1.2	-0.777 ± 0.9
AATGTTGTTGATGCACCCATAAATTGATAATTAATAATTATTTATAATCAGCAACTTAACCACAAAACAACCATAAGTTGATATTTTACAAAAGTTGGTATTCAACTATAAAATGTGAATCGAGTATTTCAGCAAAACTACTGCAGTAAGAA	-3.01 ± 1.1	-1.17 ± 0.98
AATGTTGTTGATGCAACCATAAAGTGATATTTACCGACTGCCTGCCATCCGCCGCCGCACCGCAGCCCAACCATATATTGATATCTCACAAAACAACCATAAGTTGATATTTTTGTGAATCGAGTATTTCAGCAAAACTACTGCAGTAAGAA	-2.99 ± 0.89	-3.03 ± 1.2
AATGTTGTTGATGCAACCATAAAGTGATATTTAATAATTCAACCATATATTGATATCTCATTTATAATCAGCAACTTAACCACAAAAACAAAACAACCATAAGTTGATATTTTTGTGAATCGAGTATTTCAGCAAAACTACTGCAGTAAGAA	-3.05 ± 1.3	-2.63 ± 2.9
AATGTTGTTGATGCAACCATAAAGTGATATTTAATAATTATTTATAATCAGCAACTTAACCACAAAACAACCATATATTGATATACAAAACAACCATAAGTTGATATTTTTGTGAATCGAGTATTTCAGCAAAACTACTGCAGTAAGAAAGT	-4.08 ± 1.3	-0.952 ± 0.93
AATGTTGTTGATGCAACCATAAAGTGATATTTAAAATGTGAGCGAGTAACAACCCTTAACCACAAAACAACCATATATTGATATCTCACAAAACAACCATAAGTTGATATTTTTGTGAATCGAGTATTTCAGCAAAACTACTGCAGTAAGAA	-2.19 ± 0.48	-0.988 ± 0.33
AATGTTGTTGATGCAACCATAAAGTGATATTTAATAATTATTTATAATCAGCAACTTAACCACAAAACAACCATATATTGATATCTCACAAAACAAAACGCCTGGTCGCGGGGGTGTCCGATCTGATTTCAGCAAAACTACTGCAGTAAGAA	-2.27 ± 1	-0.638 ± 1.1
AATGTTGTTGATGCAACCATAAAGTGATATTTAATAATTATTTATAATCAGCAACTTAACCACAAAATGTGAATCGAGTATTTCAGCAAAACTACTGCAGTACAACCATATATTGATATCTCACAAAACAACCATAAGTTGATATTTTAGAA	-6.01 ± 0.9	-3.82 ± 1.3
AATGTTGTTGATGCAACCATAAAGTGATATTTAATAATTATTTATAATCAGCAACTTAACCAACCCCACCAACGCGCGGTCGCGAGACACCCCACCAACGCCTGGTCGCGGGGGTGTCCGATCTGATTTCAGCAAAACTACTGCAGTAAGAA	-5.95 ± 1.6	-4.2 ± 0.92

Sequence	relative integration efficiency (log2) [1]	relative integration efficiency (log2) [2]
AATGTTGTTGATGCAACCATAAAGTGATATGGCCGCCGGCGGGCGCCGACTACCAGGCCAACACCCCACCAACGCGCGGTCGCGAGACACCCCACCAACGCCTGGTCGCGGGGGTGTCCGATCTGATTTCAGCAAAACTACTGCAGTAAGAA	-7.18 ± 0.63	-6.67 ± 3.5
AATGTTGTTGATGCAACCATAAAGTGATATTTAATAATTATTTATAATCAGCAACTTAACCACAAAACAACCATATATTGATATCTCACAAAACAACCATAAGTTGATATTGTGAATCGAGTATTTCAGCAAAACTACTGCAGTAAGAAAGT	-0.306 ± 0.15	-0.0935 ± 0.19
AATGTTGTTGATGCAACCATAAAGTGATATTTAATAATTATTTATCAACCATAAAGTGATATTTAACCAACCATATATTGATATCTCACAAAACAACCATAAGTTGATATTTTTGTGAATCGAGTATTTCAGCAAAACTACTGCAGTAAGAA	-6.32 ± 2.1	-2.57 ± 2
AATGTTGTTGATGCAACCATAAAGTGATATTTAATAACTTGGTATAGCATACATTATACGAACGGTACAACCATATATTGATATCTCACAAAACAACCATAAGTTGATATTTTTGTGAATCGAGTATTTCAGCAAAACTACTGCAGTAAGAA	-3.71 ± 1.4	-4.2 ± 0.86
AATGTTGTTGATGTGTTGATGCAACCATAAAGTGATATTTAATAATTATTTATAATCAGCAACTTAACCACAAAACAACCATATATTGATATCTCACAAAACAACCATAAGTTGATATTTTTGTGAATCGAGTATTTCAGCAAAACTACTGC	-0.31 ± 0.015	-0.829 ± 0.034
AATGTTGTTGATGCAACCATAAAATGATAATTAATAATTATTTATAATCAGCAACTTAACCACAAAACACCCATAAATTGATATTGCACAAAAGTTGGTATTCAACTATAAAATGTGAATCGAGTATTTCAGCAAAACTACTGCAGTAAGAA	-3.1 ± 1.4	-1.48 ± 0.57
AATGTTGTTGATGCAACCATAAAGTGATATTTAATAATCAACTGTATATAAATACAGTTCCACAAAACAACCATATATTGATATCTCACAAAACAACCATAAGTTGATATTTTTGTGAATCGAGTATTTCAGCAAAACTACTGCAGTAAGAA	-4.85 ± 1.1	-5.77 ± 0.6
AATGTTGTTGATGCAACCATAAAGTGATATTTACGCACTCCGTAGCCATCTGGGGCACCGGACGCTCCAACCATATATTGATATCTCACAAAACAACCATAAGTTGATATTTTTGTGAATCGAGTATTTCAGCAAAACTACTGCAGTAAGAA	-2.64 ± 0.79	-3.42 ± 0.88
TTTTGTGTTGAAACAACCATAAAGTGATAACAACGAATCAATTAAAATCATAGGCTTAATCGAAAAACAACCATATCTTGATATCGCATAAAACAACCATAAGTTGATATTTTTGTGAATAGGATATTCCAACCTTCATAGTTTAGTAAGAA	0.192 ± 0.22	-0.791 ± 0.29
AATGTTGTTGATGCAACCATAAAGTGATATTTAATAATTATTTATAATCAGCAACTTAACCACAAAACAACCATATATTGATATCTCAACCCCACCAACGCCTGGTCGCGGGGGTGTCCGATCTGATTTCAGCAAAACTACTGCAGTAAGAA	-2.58 ± 0.89	-0.776 ± 1.1
AATGTTGTTGATGCAACCATAAAGTGATATTTACGCCGGCGGGCGCCGACTACCAGGCCAACACCCCCAACCATATATTGATATCTCACAAAACAACCATAAGTTGATATTTTTGTGAATCGAGTATTTCAGCAAAACTACTGCAGTAAGAA	-3.42 ± 1.2	-2.85 ± 1.2
AATGTTGTTGATGCAACCATCCCTGTCGCGGGCCGCCGGCGGGCGCCGACTACCAGGCCAACACCCCACCAACGCGCGGTCGCGAGACACCCCACCAACGCCTGGTCGCGGGGGTGTCCGATCTGATTTCAGCAAAACTACTGCAGTAAGAA	< -10	-9.26 ± 0.31
AATGTTGTTGATGCAACCATAAAGTGATATTTAATAATTATTTATAATCAGCAACTTAACCACAAAACAACCATATATTGATAGAGACACCCCACCAACGCCTGGTCGCGGGGGTGTCCGATCTGATTTCAGCAAAACTACTGCAGTAAGAA	-3.06 ± 1.2	-1.28 ± 2
AATGTTGTTGATGCAACCATAAAGTGATATTTAATAATTATTTATAATCAGCAACTTAACCACAAAACAACCCGCGCGGTCGCGAGACACCCCACCAACGCCTGGTCGCGGGGGTGTCCGATCTGATTTCAGCAAAACTACTGCAGTAAGAA	-7.91 ± 1.9	-4.43 ± 0.75
AATGTTGTTGATGCAACCATAAAGTGATATTGCCGCCGGCGGGCGCCGACTACCAGGCCAACACCCCACCAACGCGCGGTCGCGAGACACCCCACCAACGCCTGGTCGCGGGGGTGTCCGATCTGATTTCAGCAAAACTACTGCAGTAAGAA	-7.14 ± 1.3	-5.87 ± 0.86
